From paper PMC6344896, “HuR biological function involves RRM3-mediated dimerization and RNA binding by all three RRMs” (Nucleic Acids Research, 2018)

Target: the molecule itself
Experiment: SAXS; concentration series in solution without RNA (Trx-RRM3 1.25–10 mg/ml; untagged full-length HuR WT and W261E, lowest 0.5 mg/ml); molecular weights from the Porod volume

B1: Trx-RRM3 (HuR RRM3 fused to the C-terminus of E. coli thioredoxin 1 via a GSAM linker) (domain or fragment, human, UniProt Q15717-1 243-326, looked up)
chain: GWCIFIYNLGQDADEGILWQMFGPFGAVTNVKVIRDFNTNKCKGFGFVTMTNYEEAAMAIASLNGYRLGDKILQVSFKTNKSHK
notes: Human HuR/ELAVL1 (NP_001410.2), third RNA recognition motif; Chain order: E. coli thioredoxin 1, Gly-Ser-Ala-Met, RRM3; Thioredoxin structure 2TRX was used for molecular replacement; also called RRM3-Trx; Trx-RRM3 fusion protein; source: E. coli BL21(DE3), purified; not shown: Trx (E. coli thioredoxin 1, uncleavable GSAM linker), N-terminal, kept
  stoichiometry N: 2
